The values below come from article PMC11082194, “A common polymorphism in the Intelectin-1 gene influences mucus plugging in severe asthma” (Nature Communications, 2024).

For experiment [1], the target named is purified human airway mucins. Kind of experiment: ELISA; purified mucins coated on NUNC Maxisorp plate overnight at 4 °C, 20 μg/mL, carbonate-bicarbonate buffer pH 9.6; FLAG-ITLN-1 10 μg/mL for 2 hours in binding buffer B (TBS, 3 mM CaCl3, 1% BSA, 0.05% Tween-20, 50 mM EDTA); anti-FLAG HRP, absorbance 450 nm; also with galactose 100 mM, heparin 150 μg/mL or dextran sulfate 150 μg/mL.

Experiment [2] deals with T1, FLAG-tagged recombinant ITLN-1 (human, UniProt Q8WWA0 19-298).
T1 construct: intelectin-1 (ITLN-1), human, recombinant; also called intelectin-1; recombinant human ITLN-1 protein; source: bought: Sigma, SRP8047
Kind of experiment: ELISA; C-terminal recombinant peptide coated on NUNC Maxisorp plate overnight at 4 °C, 20 μg/mL, carbonate-bicarbonate buffer pH 9.6; FLAG-ITLN-1 10 μg/mL for 2 hours in binding buffer A (TBS, 3 mM CaCl3, 1% BSA, 0.05% Tween-20); anti-FLAG HRP, absorbance 450 nm; also with heparin 150 μg/mL. The conditions noted are these: both partners purified.

On to “FLAG-tagged recombinant ITLN-1 (from UniProt Q8WWA0 19-298) (natural protein)”, for which, in experiment [1], the percent decrease of binding with dextran sulfate (150 μg/mL) worked out at 74% and the percent decrease of binding with heparin (150 μg/mL) was found to be 51.9%.

B1: MUC5AC C-terminal recombinant peptide (AA5568-AA5654) (domain or fragment, human, UniProt P98088 5568-5654, looked up)
chain: YSLEGNTVEHRCQCCQELRTSLRNVTLHCTDGSSRAFSYTEVEECGCMGRRCPAPGDTQHSEEAEPEPSQEAESGSWERGVPVSPMH
notes: MUC5AC mucin, human, C-terminal recombinant peptide, residues 5568-5654; also called C-terminal MUC5AC; C-terminal peptide of MUC5AC; source: bought: Mybiosource, #MBS2009104
As to B1, the binding result in experiment [2] is recorded as “binds”.
